Experimental data from patent publication US20240084003A1 (SIMCERE ZAIMING PHARMACEUTICAL, published 2024).

T1: human CD22, endogenous on Raji cells (human, UniProt P20273 20-847)
T1 construct: whole, on cells; Endogenous protein of the Raji cell line
T1 sequence (looked up): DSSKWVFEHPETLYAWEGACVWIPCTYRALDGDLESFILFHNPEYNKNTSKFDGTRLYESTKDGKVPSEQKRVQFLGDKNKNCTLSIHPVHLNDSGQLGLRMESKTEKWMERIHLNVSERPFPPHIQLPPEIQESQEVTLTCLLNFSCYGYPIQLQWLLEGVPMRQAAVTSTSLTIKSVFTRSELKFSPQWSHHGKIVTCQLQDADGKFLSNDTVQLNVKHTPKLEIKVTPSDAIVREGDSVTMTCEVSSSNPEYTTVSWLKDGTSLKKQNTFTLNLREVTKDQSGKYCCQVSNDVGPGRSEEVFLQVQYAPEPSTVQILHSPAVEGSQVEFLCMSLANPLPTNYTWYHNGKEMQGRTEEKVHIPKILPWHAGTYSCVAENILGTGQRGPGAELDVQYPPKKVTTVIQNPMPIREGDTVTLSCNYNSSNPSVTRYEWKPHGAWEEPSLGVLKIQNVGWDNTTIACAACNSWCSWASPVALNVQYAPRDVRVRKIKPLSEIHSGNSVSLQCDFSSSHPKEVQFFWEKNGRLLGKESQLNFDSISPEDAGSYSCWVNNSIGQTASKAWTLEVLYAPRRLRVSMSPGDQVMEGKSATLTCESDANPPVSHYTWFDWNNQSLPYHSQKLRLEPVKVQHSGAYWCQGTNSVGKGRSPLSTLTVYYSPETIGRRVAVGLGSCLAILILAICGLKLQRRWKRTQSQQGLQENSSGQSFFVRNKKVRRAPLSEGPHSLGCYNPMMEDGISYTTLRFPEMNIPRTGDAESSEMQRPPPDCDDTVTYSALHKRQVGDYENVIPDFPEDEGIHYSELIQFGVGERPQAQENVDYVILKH

T2: human CD22, full length, on CHO-K1-human CD22 2C4 cells (human, UniProt P20273 20-847)
T2 construct: Full-length human CD22 (NCBI NP_001762.2) stably transfected into CHO-K1
T2 sequence: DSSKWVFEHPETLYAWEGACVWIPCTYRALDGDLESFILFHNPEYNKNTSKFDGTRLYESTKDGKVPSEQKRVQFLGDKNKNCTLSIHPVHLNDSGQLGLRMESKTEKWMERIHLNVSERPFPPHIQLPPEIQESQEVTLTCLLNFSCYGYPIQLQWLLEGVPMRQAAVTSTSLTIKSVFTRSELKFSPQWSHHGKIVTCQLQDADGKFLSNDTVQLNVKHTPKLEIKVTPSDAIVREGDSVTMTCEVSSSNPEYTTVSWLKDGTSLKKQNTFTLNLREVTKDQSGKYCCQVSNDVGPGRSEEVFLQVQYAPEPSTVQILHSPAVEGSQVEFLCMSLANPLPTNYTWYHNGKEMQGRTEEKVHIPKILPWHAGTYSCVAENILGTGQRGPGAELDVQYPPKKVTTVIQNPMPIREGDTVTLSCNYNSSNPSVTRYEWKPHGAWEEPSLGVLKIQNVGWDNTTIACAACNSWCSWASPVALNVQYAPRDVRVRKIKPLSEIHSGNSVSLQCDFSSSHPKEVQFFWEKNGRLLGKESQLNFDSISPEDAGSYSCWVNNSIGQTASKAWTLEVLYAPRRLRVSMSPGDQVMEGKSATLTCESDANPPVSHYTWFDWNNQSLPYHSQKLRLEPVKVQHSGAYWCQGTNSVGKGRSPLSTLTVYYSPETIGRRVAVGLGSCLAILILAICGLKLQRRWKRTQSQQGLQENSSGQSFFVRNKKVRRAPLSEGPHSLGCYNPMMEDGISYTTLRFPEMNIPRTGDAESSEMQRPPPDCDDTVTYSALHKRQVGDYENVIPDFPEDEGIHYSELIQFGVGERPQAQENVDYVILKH

T3: murine CD22 protein (ACROBiosystems, SI2-M52Ha) (murine, UniProt P35329 22-708)
T3 construct: extracellular domain; also called murine CD22-ECD; murine CD22-ECD-His
T3 sequence (looked up): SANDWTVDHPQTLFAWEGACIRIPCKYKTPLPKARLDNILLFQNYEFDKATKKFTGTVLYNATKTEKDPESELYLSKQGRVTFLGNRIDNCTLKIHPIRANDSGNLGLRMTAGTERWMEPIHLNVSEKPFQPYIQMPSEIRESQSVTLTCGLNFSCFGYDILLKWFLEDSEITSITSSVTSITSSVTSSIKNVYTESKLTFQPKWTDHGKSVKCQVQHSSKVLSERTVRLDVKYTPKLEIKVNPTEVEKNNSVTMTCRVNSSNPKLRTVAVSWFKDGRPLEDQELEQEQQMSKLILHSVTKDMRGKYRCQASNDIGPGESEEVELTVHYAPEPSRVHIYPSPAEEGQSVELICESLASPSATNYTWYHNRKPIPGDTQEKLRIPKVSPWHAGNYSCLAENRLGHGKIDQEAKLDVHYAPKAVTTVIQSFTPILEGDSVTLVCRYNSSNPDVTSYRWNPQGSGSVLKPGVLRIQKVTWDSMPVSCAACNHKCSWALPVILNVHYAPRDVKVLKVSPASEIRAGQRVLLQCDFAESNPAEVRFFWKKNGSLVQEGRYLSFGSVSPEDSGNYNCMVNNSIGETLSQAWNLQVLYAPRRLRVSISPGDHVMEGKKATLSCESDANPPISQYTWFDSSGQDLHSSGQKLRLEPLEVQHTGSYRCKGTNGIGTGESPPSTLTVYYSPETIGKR


Tests used:
[1] = molecular target: T1, human CD22, endogenous on Raji cells; experiment: FACS, Raji cells
Excerpt: (§1) The required cells were scale-up cultured in a T-75 cell culture flask to the logarithmic growth phase. For the adherent cell CHO-K1, the medium was aspirated, the cells were washed 2 times with PBS buffer, and then digested with trypsin. After the digestion was terminated, the cells were washed 2 times with PBS buffer. For suspension cell Raji, the medium supernatant was directly centrifuged and discarded, and the cell pellet was washed 2 times with PBS. After counting the cells in the previous step, the cell pellet was resuspended with [PBS+2% (w/w) BSA] blocking solution to 2×10⁶ cells/ml, and added to a 96-well FACS reaction plate at 50 μl/well, and then the chimeric antibody test sample was added at 50 μl/well, and incubated on ice for 2 hours. The mixture was centrifuged and washed 3 times with PBS buffer, Alexa Flour 488-labeled secondary antibody (purchased from Invitrogen, catalog number: A-11013) was added at 50 μl/well, and incubated on ice for 1 hour. The obtained mixture was centrifuged and washed 5 times with PBS, and FACS (FACS Canto™, purchased from BD Company) was used for detection and result analysis. Data analysis was performed by software (CellQuest) to obtain the mean fluorescence density (MFI)of the cells. And then software (GraphPad Prism8) was used for analysis, data fitting, and EC50 value calculation. […] The same method was used to detect the binding of the chimeric antibodies to endogenous CD22-negative cell MoLT4 cells (purchased from ATCC, CRL-1582) and CHO-K1 cells.

[2] = molecular target: T2, human CD22, full length, on …; experiment: FACS, CHO-K1-human CD22 2C4 cells
Excerpt: as §1

[3] = molecular target: T3, murine CD22 protein (ACROBiosystems, …); experiment: ELISA, coated murine CD22, 10 nM Ab
Procedure: (§2) In order to detect the binding activity of CD22 human-murine chimeric antibodies to CD22 protein, the purified human CD22-ECD-His protein obtained in Example 2 was diluted with PBS to a final concentration of 2 μg/mL, and then added to 96-well ELISA plate at 100 μl/well. The plate was sealed with plastic film and incubated overnight at 4° C., the plate was washed 2 times with PBS the next day, and then a blocking solution [PBS+2% (w/w) BSA] was added for blocking at room temperature for 2 hours. […] After incubation at 37° C. for 2 hours, the plate was washed 3 times with PBS. HRP (horseradish peroxidase)-labeled secondary antibody (purchased from Sigma, catalog number: A0170) was added, and incubated at 37° C. for 2 hours, and the plate was washed 5 times with PBS. TMB substrate was added at 50 μl/well, and incubated at room temperature for 30 minutes, then a stop solution (1.0 N HCl) was added at 50 μl/well.
(§3) In order to detect the species cross-binding activity of the chimeric antibodies, an ELISA plate was coated with commercial murine CD22 protein (ACROBiosystems, catalog number: SI2-M52Ha) and monkey CD22 protein (ACROBiosystems, catalog number: SI2-R52Ha), respectively, and the ELISA detection was performed according to the method in Example 5.1.

[4] = molecular target: T3, murine CD22 protein (ACROBiosystems, …); experiment: ELISA, coated murine CD22, 0.1 nM Ab
Procedure: as §2, §3

[5] = molecular target: T3, murine CD22 protein (ACROBiosystems, …); experiment: ELISA, coated murine CD22, 100 nM Ab
Procedure: as §2, §3

[6] = molecular target: T3, murine CD22 protein (ACROBiosystems, …); experiment: ELISA, coated murine CD22, 0.01 nM Ab
Procedure: as §2, §3

[7] = molecular target: T3, murine CD22 protein (ACROBiosystems, …); experiment: ELISA, coated murine CD22, 0.001 nM Ab
Procedure: as §2, §3

[8] = molecular target: T3, murine CD22 protein (ACROBiosystems, …); experiment: ELISA, coated murine CD22, 0.0001 nM Ab
Procedure: as §2, §3

[9] = molecular target: T3, murine CD22 protein (ACROBiosystems, …); experiment: ELISA, coated murine CD22, 0.00001 nM Ab
Procedure: as §2, §3

Row | EC50 [1] | Maximum mean fluorescence intensity [1] | EC50 [2] | Maximum mean fluorescence intensity [2] | OD450 [3] | OD450 [4] | OD450 [5] | OD450 [6] | OD450 [7] | OD450 [8] | OD450 [9] | Binder
1 | 0.16 nM | 25300 MFI | 0.32 nM | 31500 MFI | 0.06 OD450 | 0.05 OD450 | 0.08 OD450 | 0.05 OD450 | 0.05 OD450 | 0.06 OD450 | 0.06 OD450 | F1.216.2 human-murine chimeric antibody (antibody, human IgG1, kappa, V domains shown, Chimeric, human IgG1 / kappa) VH: QVQLQQSGPEVVRPGASVKISCKASGYAFSSSWMNWMKQRPGKALEWIGRIYPGDGDTNYSGEFKVKATLTADKSSSTAYMQLSSLTSEDSAVYFCAREGSYYSNPWYFDYWGQGTTLTVSS VL: DVLVTQTPLSLPVSLGDQASISCRSSQSIVQSNGDTYLEWYLQKPGQSPKLLIYKVSNRFSGVPDRFSGSGSGTDFTLKISRVEAEDLGVYYCFQGSHVPFTFGSGTKLEIKR
2 | 0.37 nM | 24400 MFI | 0.81 nM | 27200 MFI | 0.08 OD450 | 0.07 OD450 | 0.08 OD450 | 0.07 OD450 | 0.06 OD450 | 0.07 OD450 | 0.07 OD450 | F1.192.1 human-murine chimeric antibody (antibody, human IgG1, kappa, V domains shown, Chimeric, human IgG1 / kappa) VH: AVQLQQSGVELVRPGASVKLSCTGSDFNIKEDYIHWVKQRPEQGLEWIGWIDPENGDTEYASKFQGKATITADTSSNTAYLQLSSLTSEDTAVYYCATYGSLDYWGQGTTLTVSS VL: DIKMTQSPSSMYAFLGERVTITCKASQGINSFLTWFQQKPGKSPKTLIYRANRLVDGVPSRFSGSGSGQDYSLTISSLEYEDVGIYYCLQYDEFPRTFGGGTKLEIKR
3 | 0.16 nM | 25000 MFI | 0.49 nM | 37400 MFI | 0.06 OD450 | 0.05 OD450 | 0.06 OD450 | 0.05 OD450 | 0.05 OD450 | 0.05 OD450 | 0.06 OD450 | F1.250.16 human-murine chimeric antibody (antibody, human IgG1, kappa, V domains shown, Chimeric, human IgG1 / kappa; VL tied by name) VH: QVQLQQSGAEQVKPGASVKMSCKASGYTFTTYPIEWMKQNHGESLDWIGNIHPYNDDTEYNEKFKGKATLTVEKSSNTVFLELSRLTSDDSAVYYCVRGDYYNSRYWYFDVWGTGTTVTVSS VL: DIVMTQSQKFMSTTVGDRVSITCKAGQNVRTAVAWYQQKPGQSPKLLIYSASTRYIGVPERFTGSGSGTDFTLTITNMQSEDLADYFCQQYSSFPLTFGTGTKLELKR
4 | 0.5 nM | 25000 MFI | 0.92 nM | 43800 MFI | 0.07 OD450 | 0.05 OD450 | 0.16 OD450 | 0.05 OD450 | 0.05 OD450 | 0.05 OD450 | 0.06 OD450 | F1.280.1 human-murine chimeric antibody (antibody, human IgG1, kappa, V domains shown, Chimeric, human IgG1 / kappa) VH: QIQLVQSGPELKKPGETVKISCKASGYTFTTYGMSWVKQTPGKGLTWMGWINTDSGVPTYADDFKRRFAFSLEASATTAYLQINNLKNEDTATYFCARGGPDYWGQGTTLTVSS VL: DILLTQSPATLSVTPGETVSLSCRASQSIYKNLHWYHQKSHRSPRLLIKYASDSISGIPSRFTGSGSGTNFTLSINSVKPEDEGIYYCLQGYIVPLTFGAGTKLELKR
5 | 0.89 nM | 23700 MFI | 1.07 nM | 27900 MFI | 0.06 OD450 | 0.05 OD450 | 0.06 OD450 | 0.05 OD450 | 0.05 OD450 | 0.05 OD450 | 0.06 OD450 | F1.120.15 human-murine chimeric antibody (antibody, human IgG1, kappa, V domains shown, Chimeric, human IgG1 / kappa) VH: QVQLQQSGPELVKPGASVKISCKASGNAFSNSWMNWVKQRPGKGLEWIGRVYSEDGDTQYNGKFRDKATLTADRSTSTAYMQLSSLTSEDSAVYFCARWLIYYGTYGAMDYWGQGTSVTVSS VL: DIQMTQTTSSLSASLGDRVTISCRASQDINNYLNWYHQKPDGTVKLLIYFTSRPYSGVPSRFSGSGSGTDYSLTISNLEQEDIATYFCQQGNTLPWTFGGGTKLEIKR
6 | 2.41 nM | 20800 MFI | 11.2 nM | 23000 MFI | 0.06 OD450 | 0.05 OD450 | 0.07 OD450 | 0.05 OD450 | 0.05 OD450 | 0.05 OD450 | 0.06 OD450 | F1.200.11 human-murine chimeric antibody (antibody, human IgG1, kappa, V domains shown, Chimeric, human IgG1 / kappa) VH: QNQLVQSGPELKKPGETVKISCKASGYTFTTAGMQWVQKMPGKGFKWIGWINTLSGEPKYAEDFKGRFAFSLETSATTAYLQISNLKNEDTATYFCARAYYSNLYWYFDVWGTGTTVTVSS VL: DIVMTQSQKFMSTTVGDRVTITCKASQNVVTAVAWYQQKPGQSPKVLIYSASNRYSGVPDRFTGSGSGTDFTLTISNMHSEDLANYFCHQYSSYPFTFGSGTKLEIKR
